{
  "source": "paper PMC11067348",
  "binders": {"B1": {"name": "pVP16-AR111Q (amino acids 12-660), P10275 F23A (protein)", "chain": "PRPPSKTYRGAAQNLFQSVREVIQNPGPRHPEAASAAPPGASLLLLQQQQQQQQQQQQQQQQQQQQQQQETSPRQQQQQQGEDGSPQAHRRGPTGYLVLDEEQQPSQPQSALECHPERGCVPEPGAAVAASKGLPQQLPAPPDEDDSAAPSTLSLLGPTFPGLSSCSADLKDILSEASTMQLLQQQQQEAVSEGSSSGRAREASGAPTSSKDNYLGGTSTISDNAKELCKAVSVSMGLGVEALEHLSPGEQLRGDCMYAPLLGVPPAVRPTPCAPLAECKGSLLDDSAGKSTEDTAEYSPFKGGYTKGLEGESLGCSGSAAAGSSGTLELPSTLSLYKSGALDEAAAYQSRDYYNFPLALAGPPPPPPPPHPHARIKLENPLDYGSAWAAAAAQCRYGDLASLHGAGAAGPGSGSPSAAASSSWHTLFTAEEGQLYGPCGGGGGGGGGGGGGGGGGGGGGGGEAGAVAPYGYTRPPQGLAGQESDFTAPDVWYPGGMVSRVPYPSPTCVKSEMGPWMDSYSGPYGDMRLETARDHVLPIDYYFPPQKTCLICGDEASGCHYGALTCGSCKVFFKRAAEGKQKYLCASRNDCTIDKFRRKNCPSCRLRKCYEAGMTLGARKLKKLGNLKLQEEGEASSTTSPTEETTQKL"}},
  "molecular_target": "T1, pM-Gal4DBD-AR (amino acids 624-919), P10275",
  "T1 chain": "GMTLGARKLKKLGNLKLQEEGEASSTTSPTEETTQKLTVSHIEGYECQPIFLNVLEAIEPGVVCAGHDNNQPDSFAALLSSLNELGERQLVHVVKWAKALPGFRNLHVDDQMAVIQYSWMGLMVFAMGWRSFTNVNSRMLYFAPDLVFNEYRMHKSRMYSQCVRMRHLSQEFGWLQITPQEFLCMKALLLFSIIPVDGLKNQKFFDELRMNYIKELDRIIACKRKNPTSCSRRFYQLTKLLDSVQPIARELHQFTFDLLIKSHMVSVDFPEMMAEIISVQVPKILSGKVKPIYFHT",
  "experiment": "mammalian two-hybrid",
  "settings": "chain shown with the change, HEK293T cells, read off a plot",
  "data": [
    {"binder": "B1", "values": [
      {"measurement": "response (Relative Luciferase Units)", "setting": "DHT treated, parent: est. 2.4", "result": 0.35},
      {"measurement": "other: Average Fold Change (DHT/EtOH treated)", "setting": "DHT versus EtOH, parent: est. 2.2", "result": 0.9}
    ]}
  ]
}
